What was measured:
p1-encoded leu2* = experiment: p1 leu2* fluctuation tests in AR-Y304 (p1 mutation rate reporter strain, mutual orthogonality); assay type: cell-based, S. cerevisiae; settings: for change in p1 mutation rate by TP-DNAP2: AR-Y304, noncognate polymerase in trans
Excerpt: Strains for testing mutual orthogonality were generated by transforming a panel of CEN6/ARS4 vectors encoding TP-DNAP1 or TP-DNAP2 variants into two base strains, AR-Y304 and GA-Y021. AR-Y304 (Ravikumar et al., 2014, Nature Chemical Biology, 10:175-177) contains recombinant p1 encoding mKate2, URA3 and leu2* without disturbing the native TP-DNAP1 ORF. Similarly, GA-Y021 encodes recombinant p2 that replaces ORF1 with mKate2, URA3 and leu2* without disturbing the native TP-DNAP2 ORF.
To precisely measure p1 and p2 per-base substitution mutation rates, several modifications were made to the small-scale protocol. First, 36 replicates were performed for reconfirmation of candidate TP-DNAP2 mutators, and 48 replicates for genomic and mutual orthogonality experiments. Titers were also determined for each strain after spot plating by pooling the residual volume from 4 replicates and plating dilutions on YPD. The expected number of LEU2 functional mutants (m) was determined by the Ma-Sandri-Sarkar maximum likelihood estimator (as calculated by the FALCOR tool and corrected for partial plating (Foster, 2006, Methods Enzymol, 409:195-213; Sarkar et al., 1992, Genetica, 85:173-179; Hall et al., 2009, Bioinformatics, 25:1564-1565). The mean mKate2 fluorescence was determined from 50,000 event counts on Attune™ NxT Flow Cytometer and converted to p2 copy number by using a calibration curve. To determine per-base substitution rates, the corrected m was normalized to the average cell titer, the p2 copy number, and the target size for functional leu2* reversion (2.33 bp). 95% confidence intervals were similarly scaled.
To test whether the replication mechanisms of p1 and p2 are mutually orthogonal in vivo, p1 and p2 mutation rates were measured in the presence of a panel of TP-DNAP1 and TP-DNAP2 variants with varying mutation rates. Changes in p1 or p2 mutation rate induced by TP-DNAP variants would therefore signal a degree of cross-replication between TP-DNAP1/p1 and TP-DNAP2/p2, if any. A panel of six polymerases was introduced on CEN6/ARS4 vectors into two separate base strains, AR-Y304 (p1 mutation rate reporter strain) and GA-Y021 (p2 mutation rate reporter strain), encoding mKate2, URA3, and leu2* on either p1 or p2, respectively. Included in this panel were TP-DNAP1^WT and two error-prone TP-DNAP1 variants found in previous screens: TP-DNAP1^1777K, L900S and TP-DNAP1^L477V, L640Y, I777K, W814N. Also included were TP-DNAP2^WT and the error-prone TP-DNAP2^S370Q and TP-DNAP2^Y424Q variants found in this work. In AR-Y304 and GA-Y021, both p1 and p2 still encode their native wt TP-DNAP's. Any contribution to replication by a third TP-DNAP encoded in trans is monitored by detecting changes in linear plasmid mutation rate. Importantly, these experiments afford each DNAP an opportunity to replicate its native plasmid and lose its attached TP, becoming “spent” and perhaps more likely to replicate its noncognate linear plasmid through DNAP exchange (Klassen and Meinhardt, 2007, Linear Protein-Primed Replicating Plasmids in Eukaryotic Microbes, in Microbial Linear Plasmids, pp 1 87-226. Springer, Berlin, Heidelberg). The presence of TP-DNAP1^WT or TP-DNAP2^WT in trans had no effect on their noncognate linear plasmids' mutation rate. […] Likewise, p1 mutation rate was unaltered in the presence of mutagenic TP-DNAP2^S370Q and TP-DNAP2^Y424Q, which increased p2 mutation rate by 29- and 16-fold, respectively (FIG. 9). Thus, TP-DNAP1 replicates p1 with at least 870-fold specificity over p2, while TP-DNAP2 targets p2 with at least 29-fold specificity over p1. The level of mutual orthogonality measured here is limited by the error-rates of DNAPs used, especially that of TP-DNAP2 variants.

p2-encoded leu2* = experiment: p2 leu2* fluctuation tests in GA-Y021 (p2 mutation rate reporter strain); assay type: cell-based, S. cerevisiae
Outline: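 Yeast GA-Y021 carrying wt TP-DNAP2 plus variants in trans; replicate cultures grown 48 h at 30° C in pH 5.8 SC dropout, spot-plated on leucine-free medium, colonies counted after 5 days. m by p0 method (six replicates) or Ma-Sandri-Sarkar MLE (36–48 replicates), normalized to titer, p2 copy number (mKate2) and 2.33 bp target.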

B1: TP-DNAP1-4-2: TP-DNAP1 variant (L477V, L640Y, I777K, W814N), encoded by SEQ ID NO:11 (protein, listed as Kluyveromyces lactis)
chain: MDYKDKALNDLRNVYADFDSLPLDFRQILIKDRATLLQKEDVEKKILERQEDAKKYAEYLKQSEIPERISLPNIKRHKGVSISFEETSEDMVLEPRPFIFDGLNIRCFRRETIFSLKNKILNMVKESSSFKNVSRQSVSFMYFKIFNKGKVIASTKSVNIYEDKIDERLEDLCNNFDDVLKKIIDVTYGYESLFVSETYSYVIFYAKSIYFPQPRCVNNWGNNIPNILTFDSFKLFTANKNNVSCIKQCSRFLWQKDFNTLEEMIEYKNGNICIVTPQLHINDVRDIKSFNDIRLYSESPIKTFSVIDNTITYLFYFKEHLGVIFNITKSRHDRRVTKFSPLSKFSDVKNITVCFDIESYFDPEKESNQVNIPFICCASIIYNKVIGNIVDFEGRDCVAQMIEYVVDICGELNISSVELIAHNGGGYDFHYILSSMYNPAAIKNILIRNNSFISFNFAHDGVKFSVKDSYSFLLCSVANASKAFLNEETFKKTDFPHHDLKTADDLYKVYKEWSSVNTEINHVVEKEKLLITSEHIVNFTKNDKSKTLIEWSKDYCRNDVLVLSKVWLEFKNAVEDIFNCELVDQTMTLAGLSYKLFQANMPFDVELRHPNKEDYFNMREALIGGRCISVNGIYKDVLCYDVKSLYPASMAFYDQPYGSFKRVSSRPKDELGIYYVRVTPNRNNKSNFFPIRSHNKITYNNFEESTYIAWYTNVDIDIGLSEGHNIEYIPFDSYGNIGYSWSKKGKIFEKYIKDVLYKLKIKYEKQNNKVKRNVIKKIMNSLWGKFAQKWVNFEYFIKSEDDIDFESEEAYKINDTDFMLIKKIKESTYSSKPIQNGVFTLSWARYHMKSIWDAGAKEGAECIYSDTDSIFVHKEHFKKNAKFMLNGLKVPIIGSEVGQLELECEFDKLLCAGKKQYMGFYTYFQDGKPCIKEKKRFKGIPSNYIIPELYAHLLSGADKEAKIQFLKFRREWGSVKGYIENKTVKAT
fold increase of p1 mutation rate (p1-encoded leu2*; AR-Y304, polymerase in trans): 870 fold | change in p2 mutation rate by TP-DNAP1 (p2-encoded leu2*; GA-Y021, noncognate polymerase in trans, mutual orthogonality experiment): no statistically significant change

B2: WT: wild-type Kluyveromyces lactis DNA polymerase TP-DNAP2, SEQ ID NO:13 (protein, listed as Kluyveromyces lactis)
chain: MNDELAFLNSQIDDYSDDIEFLRTEVFRINRYSKSIYSLMKNSSKEAIKETIEFNKYGQEIHSKIKEKEISLIEAIKLMEKKYKYLRSLNKTKDKSKKKKIHTKDIETLKTIYKTKADFDIRNFKNAETFTYENYSLLIPSEKELIDLIPEIEEDYSYYFYVSLTITGPTIFGGVTRKVPIIDTYGDINKDFYNKIKENITKVLDRVPFYEEKESEIICKKVLITLTVNKWESIDKWYKNVKSKSKKFKDFTLFLASDTSKNCVQQCVEYLGGKWNTNYSLEKMIPQQKIVTYIPLLMDIQYVQSMEDLISDFDEPNTDCKNIARLLKWNGHMGVITKIDKDVKINRIQRKRIIDVENKEVKEVFFDIESFSDETKHQIPYLICWSYLGELYYRTGKNCIKEFVEEILSYNVDIILYAWYGSGYDYQHVLPYMKSKCIKDKYIIKNNMITYGELYYENAIIYLKDPYLFILTSLDKASKAFNVINKGEFPHSIIHSWEDLNKILPNWVKIQKRMIEYKDDNKLNIYYKNIEIFENDRNYNTILENAIEYCKVDVLAMEKVWIKFKKLLEKNLNITVSVKTFTLSQLSMKIMESKLPKYVKLYVPTLEEYSKIRNAIYGGRVISKNGIYEENIVYADVVSLYPSAMKLLKHSYGKPKLVDYIDFEKHGIYRVTLLNKHDQEPKNYLNFVPRRINRKLTWEWFKIHEGWYHTYDLIIAKSEGFDIYCHEGFEYPEKDYIFNDFIDTLYSMKETHTACSCEEQPCPIRMVAKIALNGGGYGKFVQKPIDKEIYIVKRDVVAGECDKLQENENGEICIGKRLVKRPLFYNLDSENYDKMIIEKEDEPIYSTQCGISILSASRYRLYKLCKQFENIDIIYSDTDSIFVKQKSVDWELFKSKCGSELGQLDSTIDDTKNAIISKMYIGGAKMYAFEYLNNKNKLITKLHCKGVPNYMLSLNQFKYLMESPDNTIAYKFEIIRRKLVNVITKDLIKDIKQT
change in p1 mutation rate by TP-DNAP2 (p1-encoded leu2*): no effect | specificity for p2 over p1 (p2-encoded leu2*): at least 29 fold | mutation rate of p2-delORF1-mUL* replication (p2-encoded leu2*; GA-Y021, wt TP-DNAP2 encoded on p2): 5.96×10^−10 s.p.b.

B3: S370Q: TP-DNAP2 variant (protein, listed as Kluyveromyces lactis)
chain: MNDELAFLNSQIDDYSDDIEFLRTEVFRINRYSKSIYSLMKNSSKEAIKETIEFNKYGQEIHSKIKEKEISLIEAIKLMEKKYKYLRSLNKTKDKSKKKKIHTKDIETLKTIYKTKADFDIRNFKNAETFTYENYSLLIPSEKELIDLIPEIEEDYSYYFYVSLTITGPTIFGGVTRKVPIIDTYGDINKDFYNKIKENITKVLDRVPFYEEKESEIICKKVLITLTVNKWESIDKWYKNVKSKSKKFKDFTLFLASDTSKNCVQQCVEYLGGKWNTNYSLEKMIPQQKIVTYIPLLMDIQYVQSMEDLISDFDEPNTDCKNIARLLKWNGHMGVITKIDKDVKINRIQRKRIIDVENKEVKEVFFDIEQFSDETKHQIPYLICWSYLGELYYRTGKNCIKEFVEEILSYNVDIILYAWYGSGYDYQHVLPYMKSKCIKDKYIIKNNMITYGELYYENAIIYLKDPYLFILTSLDKASKAFNVINKGEFPHSIIHSWEDLNKILPNWVKIQKRMIEYKDDNKLNIYYKNIEIFENDRNYNTILENAIEYCKVDVLAMEKVWIKFKKLLEKNLNITVSVKTFTLSQLSMKIMESKLPKYVKLYVPTLEEYSKIRNAIYGGRVISKNGIYEENIVYADVVSLYPSAMKLLKHSYGKPKLVDYIDFEKHGIYRVTLLNKHDQEPKNYLNFVPRRINRKLTWEWFKIHEGWYHTYDLIIAKSEGFDIYCHEGFEYPEKDYIFNDFIDTLYSMKETHTACSCEEQPCPIRMVAKIALNGGGYGKFVQKPIDKEIYIVKRDVVAGECDKLQENENGEICIGKRLVKRPLFYNLDSENYDKMIIEKEDEPIYSTQCGISILSASRYRLYKLCKQFENIDIIYSDTDSIFVKQKSVDWELFKSKCGSELGQLDSTIDDTKNAIISKMYIGGAKMYAFEYLNNKNKLITKLHCKGVPNYMLSLNQFKYLMESPDNTIAYKFEIIRRKLVNVITKDLIKDIKQT
change in p1 mutation rate by TP-DNAP2 (p1-encoded leu2*): unaltered | fold increase of p2 mutation rate (p2-encoded leu2*; GA-Y021, mutual orthogonality experiment, 48 replicates): 29 fold | Per-base substitution rate pf p2 (p2-encoded leu2*; TP-DNAP2 variant in trans, wt TP-DNAP2 in cis, 36 replicates, (95% C.I.)): 83.0 (62.8-105) ×10^−10 | Fold increase (p2-encoded leu2*; p2 substitution rate over no variant in trans): 13.9 | fold increase of p2 substitution mutation rate (p2-encoded leu2*; reconfirmation, 36 replicates): ~14 fold

From US20230242902A1, “A HIGHLY ERROR-PRONE […] R[…] FOR TARGETED CONTINUOUS EVOLUTION IN VIVO” (The Regents of the University of California, priority 2017, published 2023)
